# According to patent publication US20210017240A1 (ACCESS BUSINESS GROUP INTERNATIONAL, published 2021):
# T1: human recombinant renin (human, UniProt P00797 67-406, limits assumed)
# T1 sequence (looked up): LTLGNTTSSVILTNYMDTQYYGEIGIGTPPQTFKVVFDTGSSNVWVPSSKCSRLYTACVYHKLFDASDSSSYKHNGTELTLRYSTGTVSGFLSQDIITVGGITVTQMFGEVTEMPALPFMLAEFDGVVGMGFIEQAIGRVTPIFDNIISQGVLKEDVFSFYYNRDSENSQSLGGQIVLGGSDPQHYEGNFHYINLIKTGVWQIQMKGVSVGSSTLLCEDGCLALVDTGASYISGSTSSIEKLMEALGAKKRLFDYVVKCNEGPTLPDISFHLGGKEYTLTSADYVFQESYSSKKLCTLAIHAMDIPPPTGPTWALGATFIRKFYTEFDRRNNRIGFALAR
# Biological target: angiotensin converting enzyme (ACE)
# Test: cell-based or functional assay
row,"IC50 of in vitro ACE activity inhibition (FAPGG substrate, absorbance at 345 nM)",Binder
1,21 µg/mL,"MVWGP [isolated peptide 3, MVWGP (Met-Val-Trp-Gly-Pro)]"
2,550 µg/mL,"TGSYTEGWS [isolated peptide 4, TGSYTEGWS (Thr-Gly-Ser-Tyr-Thr-Glu-Gly-Trp-Ser)]"

# Further lines, the binder ahead of its results:
row,Binder,"IC50 of in vitro ACE activity inhibition (FAPGG substrate, absorbance at 345 nM)"
1,"YFVP [isolated peptide 1, YFVP (Tyr-Phe-Val-Pro)]",250 µg/mL
2,"SGRDP [isolated peptide 2, SGRDP (Ser-Gly-Arg-Asp-Pro)]",510 µg/mL

# Biological target: T1, human recombinant renin
# Test: cell-based or functional assay
row,% Inhibition of renin activity at 1 mg/mL peptide (fluorometric Renin Inhibitor Screening Assay Kit),Binder
1,-46.4%,"MVWGP [isolated peptide 3, MVWGP (Met-Val-Trp-Gly-Pro)]"
2,107%,"TGSYTEGWS [isolated peptide 4, TGSYTEGWS (Thr-Gly-Ser-Tyr-Thr-Glu-Gly-Trp-Ser)]"

# Further lines, the binder ahead of its results:
row,Binder,% Inhibition of renin activity at 1 mg/mL peptide (fluorometric Renin Inhibitor Screening Assay Kit)
1,"YFVP [isolated peptide 1, YFVP (Tyr-Phe-Val-Pro)]",-40.5%
2,"SGRDP [isolated peptide 2, SGRDP (Ser-Gly-Arg-Asp-Pro)]",-54.5%
